Data: patent US7109170B2, “Region of factor IXa protease domain that interacts with factor VIIIa and methods therefor” (Saint Louis University, priority 1999, dated 2006)

What was measured:
Format in all cases: biochemical
[1] = test system: Factor IX deficient plasma; assay: coagulant activity of XIa-activated IXa proteins
factor VIIIa [2] = target: T1, factor VIIIa (Homo sapiens, UniProt P00451); assay: inhibition of Xa generation by active site-blocked (DEGR) IXa proteins, presence of phospholipid (Kd,app for VIIIa)
T1 construct: purchased Dr. Leon Hoyer (American Red Cross, Rockville, Md.)
T1 sequence (P00451 20-759 limits assumed): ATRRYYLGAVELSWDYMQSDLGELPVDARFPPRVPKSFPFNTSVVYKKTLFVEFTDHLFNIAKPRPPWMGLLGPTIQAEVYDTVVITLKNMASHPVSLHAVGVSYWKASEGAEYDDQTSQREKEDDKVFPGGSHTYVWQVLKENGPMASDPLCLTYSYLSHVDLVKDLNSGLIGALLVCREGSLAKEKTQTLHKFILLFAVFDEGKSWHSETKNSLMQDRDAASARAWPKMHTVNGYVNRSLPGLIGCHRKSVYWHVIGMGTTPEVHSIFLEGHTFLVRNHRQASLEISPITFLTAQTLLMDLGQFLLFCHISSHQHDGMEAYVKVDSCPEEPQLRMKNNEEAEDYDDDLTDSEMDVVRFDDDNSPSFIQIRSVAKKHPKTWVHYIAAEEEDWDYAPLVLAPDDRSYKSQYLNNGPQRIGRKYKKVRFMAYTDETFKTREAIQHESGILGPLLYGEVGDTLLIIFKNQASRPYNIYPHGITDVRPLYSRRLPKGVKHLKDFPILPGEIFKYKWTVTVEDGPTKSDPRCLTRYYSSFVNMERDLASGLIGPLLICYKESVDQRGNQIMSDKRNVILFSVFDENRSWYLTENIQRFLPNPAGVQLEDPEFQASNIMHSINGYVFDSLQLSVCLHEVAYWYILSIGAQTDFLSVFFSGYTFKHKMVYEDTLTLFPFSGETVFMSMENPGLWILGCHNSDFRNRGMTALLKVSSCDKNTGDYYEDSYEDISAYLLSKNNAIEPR
T1 sequence (P00451 1668-2351 limits assumed): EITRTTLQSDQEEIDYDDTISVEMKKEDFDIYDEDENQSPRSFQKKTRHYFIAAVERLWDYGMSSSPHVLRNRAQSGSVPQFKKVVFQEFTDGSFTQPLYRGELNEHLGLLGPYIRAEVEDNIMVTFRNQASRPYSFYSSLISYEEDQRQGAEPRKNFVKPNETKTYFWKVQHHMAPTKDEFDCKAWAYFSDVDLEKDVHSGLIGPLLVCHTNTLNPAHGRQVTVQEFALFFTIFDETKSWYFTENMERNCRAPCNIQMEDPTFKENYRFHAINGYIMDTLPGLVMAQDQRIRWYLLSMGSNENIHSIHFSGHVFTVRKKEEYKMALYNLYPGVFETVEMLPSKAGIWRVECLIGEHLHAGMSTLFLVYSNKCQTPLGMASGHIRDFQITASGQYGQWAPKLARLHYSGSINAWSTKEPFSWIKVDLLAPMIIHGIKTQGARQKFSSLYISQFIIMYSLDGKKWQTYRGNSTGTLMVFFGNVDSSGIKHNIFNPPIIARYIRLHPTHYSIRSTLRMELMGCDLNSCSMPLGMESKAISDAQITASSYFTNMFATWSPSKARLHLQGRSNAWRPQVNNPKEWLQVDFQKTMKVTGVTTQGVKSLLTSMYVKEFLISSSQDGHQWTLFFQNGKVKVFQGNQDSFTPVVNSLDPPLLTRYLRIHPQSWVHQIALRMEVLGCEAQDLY
Procedure: (§1) Apparent Kds of factor VIIIa binding to various active site-blocked factor IXa proteins were determined from inhibition experiments as detailed in Mathur et al., 1997, supra. […] Reactions were carried out for 2 min and the rates of factor X activation were measured as outlined above.
(§2) Various DEGR-ck-inhibited factor IXa proteins were prepared for these experiments as follows. IXNP, IXWT, and each mutant factor IX at 200 μg/ml was activated by factor XIa (2 μg/ml) for 90 min. in TBS, pH 7.4 (0.05 M Tris, 0.15 M NaCl, pH 7.4) containing 5 mM Ca^2+.
(§3) Enzymol. 74, 481–508 given below:
(§4) [formula] where y is the rate of Xa formation in the presence of a given concentration of DEGR-IXa protein represented by x, a is the maximum rate of Xa formation in the absence of DEGR-IXa, and s is the slope factor. Each point was weighted equally and the data were fitted to Equation 1 using the nonlinear regression analysis program obtained from Erithacus Software (GraFit). […] To obtain the Kd,app values for the interaction of DEGR-IXa proteins with factor VIIIa, the following equation was used, as described by Cheng and Prusoff, 1973, Biochem. Pharmacol. 22, 3099–3108 and further discussed by Craig, 1993, Trends Pharmacol. Sci. 6, 68–71.

factor VIIIa [3] = target: T1, factor VIIIa; assay: inhibition of Xa generation by active site-blocked (DEGR) IXa proteins, absence of phospholipid (Kd,app for VIIIa)
Procedure: as §1, §2, §3, §4

## IXaV331A: activated factor IX mutant V331A
[1]
  coagulant activity as compared to IXaNP: ~6%
Factor VIIIa [2]; active site-blocked (DEGR) IXa proteins, 10 μM phospholipid, read-out: Kd, app for interaction with factor VIIIa, PL-plus system
  Kd: 0.61 ± 0.08 nM
Factor VIIIa [2]; presence of phospholipid
  fold-reduction in affinity for factor VIIIa compared with DEGR-IXaWT: 11 fold
Factor VIIIa [3]; absence of phospholipid
  fold-reduction in affinity for factor VIIIa compared with DEGR-IXaWT: 7 fold
Factor VIIIa [3]; active site-blocked (DEGR) IXa proteins, no phospholipid, read-out: Kd, app for interaction with factor VIIIa, PL-minus system
  Kd: 1350 ± 310 nM
